Experimental data: IntAct's records for PubMed 8848052

B1: mRNA export factor GLE1 (Saccharomyces cerevisiae), Q12315 (parent)
chain: MRFVFDEVFNSDTDSPEFEETCSTTSSTSSQCPTPEPSPAIKLPSFTKVGTKKLVNESVVILDPALENALRDLNLQSKLIPINEPIVAASSIIVPHSTNMPLPRASHSSLLDNAKNSNATAPLLEAIEESFQRKMQNLVLANQKEIQSIRENKRRVEEQRKRKEEEERKRKEAEEKAKREQELLRQKKDEEERKRKEAEAKLAQQKQEEERKKIEEQNEKERQLKKEHEAKLLQQKDKLGKAVTNFDKISKMFWHYKDKIAQIKQDIVLPIKKADVNVRNLLSRHKRKINPKFGQLTNSNQQLFKIQNELTQLINDTKGDSLAYHWILNFIAKAVVHQAETEVRVKPESALPLGKLTLYLLVQFPELQELFMARLVKKCPFVIGFTCEIDTEKGRQNMGWKRNNENKWEDNTSYDERMGGILSLFAIITRLQLPQEFITTTSHPFPIALSWHILARICNTPLNLITNTHFVILGSWWDAAAVQFLQAYGNQASKLLILIGEELTSRMAEKKYVGAARLRILLEAWQNNNMESFPEMSP
partner: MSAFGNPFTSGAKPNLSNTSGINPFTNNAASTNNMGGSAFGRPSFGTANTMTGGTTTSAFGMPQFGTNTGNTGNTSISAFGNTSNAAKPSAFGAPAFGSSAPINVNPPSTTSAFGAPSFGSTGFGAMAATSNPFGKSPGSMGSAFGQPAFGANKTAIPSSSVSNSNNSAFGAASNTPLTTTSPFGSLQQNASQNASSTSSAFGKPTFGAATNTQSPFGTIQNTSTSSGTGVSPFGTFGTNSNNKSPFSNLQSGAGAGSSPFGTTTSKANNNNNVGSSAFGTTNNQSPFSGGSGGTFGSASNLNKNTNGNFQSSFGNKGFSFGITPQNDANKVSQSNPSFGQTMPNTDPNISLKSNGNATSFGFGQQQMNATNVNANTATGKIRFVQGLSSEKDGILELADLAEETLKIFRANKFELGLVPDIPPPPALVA

Variants of: B1
Settings: with nup42_yeast NUP42, P49686

effect of a mutation on the interaction | Variant
decreasing interaction | L356A
